From patent US20020177689A1

Target: Rhodamine green-Gly-Gly-dPhe-Leu-Arg-Arg-Val-Cys(QSY 7)-betaAla-NH2

- Km (steady state kinetics, FRET cleavage assay): 8 µM
Substance: recombinant human neutral endopeptidase (NEP) (from UniProt P08473) (enzyme)
